Data as given in patent publication US20140080757A1 (ZEALAND PHARMA A S, published 2014).
Numbered stars: 1 amine (or outer) side, 2 acyl side, 3 side chain; on linkers, the order of the positions; unused ones are H or OH. Square brackets hold non-standard residues; d marks the D form. Side chains are listed from the residue outwards. * marks the point of attachment. γGlu = O=C(O)[C@H](CCC(=O)[*:2])N[*:1]; Palmitoyl = CCCCCCCCCCCCCCCC(=O)*; Aib = CC(C)(N)C(=O)O

B1: Compound 23 (peptide)
peptide: H-H[Aib]QGTFTSDYSKYLESK([γGlu-Palmitoyl])AAHDFVEWLESA-NH2
SMILES: CCCCCCCCCCCCCCCC(=O)N[C@@H](CCC(=O)NCCCC[C@H](NC(=O)[C@H](CO)NC(=O)[C@H](CCC(=O)O)NC(=O)[C@H](CC(C)C)NC(=O)[C@H](Cc1ccc(O)cc1)NC(=O)[C@H](CCCCN)NC(=O)[C@H](CO)NC(=O)[C@H](Cc1ccc(O)cc1)NC(=O)[C@H](CC(=O)O)NC(=O)[C@H](CO)NC(=O)[C@@H](NC(=O)[C@H](Cc1ccccc1)NC(=O)[C@@H](NC(=O)CNC(=O)[C@H](CCC(N)=O)NC(=O)C(C)(C)NC(=O)[C@@H](N)Cc1c[nH]cn1)[C@@H](C)O)[C@@H](C)O)C(=O)N[C@@H](C)C(=O)N[C@@H](C)C(=O)N[C@@H](Cc1c[nH]cn1)C(=O)N[C@@H](CC(=O)O)C(=O)N[C@@H](Cc1ccccc1)C(=O)N[C@H](C(=O)N[C@@H](CCC(=O)O)C(=O)N[C@@H](Cc1c[nH]c2ccccc12)C(=O)N[C@@H](CC(C)C)C(=O)N[C@@H](CCC(=O)O)C(=O)N[C@@H](CO)C(=O)N[C@@H](C)C(N)=O)C(C)C)C(=O)O
B2: Compound 24 (peptide)
peptide: H-H[Aib]QGTFTSDYSKYLESK([γGlu-Palmitoyl])AAEDFVEWLESA-NH2
SMILES: CCCCCCCCCCCCCCCC(=O)N[C@@H](CCC(=O)NCCCC[C@H](NC(=O)[C@H](CO)NC(=O)[C@H](CCC(=O)O)NC(=O)[C@H](CC(C)C)NC(=O)[C@H](Cc1ccc(O)cc1)NC(=O)[C@H](CCCCN)NC(=O)[C@H](CO)NC(=O)[C@H](Cc1ccc(O)cc1)NC(=O)[C@H](CC(=O)O)NC(=O)[C@H](CO)NC(=O)[C@@H](NC(=O)[C@H](Cc1ccccc1)NC(=O)[C@@H](NC(=O)CNC(=O)[C@H](CCC(N)=O)NC(=O)C(C)(C)NC(=O)[C@@H](N)Cc1c[nH]cn1)[C@@H](C)O)[C@@H](C)O)C(=O)N[C@@H](C)C(=O)N[C@@H](C)C(=O)N[C@@H](CCC(=O)O)C(=O)N[C@@H](CC(=O)O)C(=O)N[C@@H](Cc1ccccc1)C(=O)N[C@H](C(=O)N[C@@H](CCC(=O)O)C(=O)N[C@@H](Cc1c[nH]c2ccccc12)C(=O)N[C@@H](CC(C)C)C(=O)N[C@@H](CCC(=O)O)C(=O)N[C@@H](CO)C(=O)N[C@@H](C)C(N)=O)C(C)C)C(=O)O

Experiments:
Assay in all cases: cell-based or functional assay
[1] = target: human glucagon receptor (Glucagon-R) (human, UniProt P47871 26-477)
[2] = target: human glucagon-like peptide 1 receptor (GLP-1R) (human, UniProt P43220 24-463)
[3] = target: T1, endogenous GLP-1 receptor of a murine insulinoma cell line (murine, UniProt O35659 22-463)
T1 sequence (looked up): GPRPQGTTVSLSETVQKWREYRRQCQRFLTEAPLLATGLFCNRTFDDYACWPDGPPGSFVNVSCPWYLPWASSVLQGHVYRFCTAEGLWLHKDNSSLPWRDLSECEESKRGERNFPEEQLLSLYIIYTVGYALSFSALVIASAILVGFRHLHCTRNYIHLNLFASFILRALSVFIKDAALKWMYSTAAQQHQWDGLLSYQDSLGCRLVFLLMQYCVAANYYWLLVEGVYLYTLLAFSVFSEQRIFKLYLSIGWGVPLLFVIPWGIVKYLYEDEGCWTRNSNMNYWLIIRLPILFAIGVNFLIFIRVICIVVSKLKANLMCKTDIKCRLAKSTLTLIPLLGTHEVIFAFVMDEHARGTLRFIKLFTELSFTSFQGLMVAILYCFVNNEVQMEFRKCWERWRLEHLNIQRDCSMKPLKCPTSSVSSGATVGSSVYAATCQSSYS

[4] = target: endogenous glucagon receptor of primary rat hepatocytes (rat, UniProt P30082 27-485)
Chain of endogenous glucagon receptor of primary rat hepatocytes (P30082 27-485): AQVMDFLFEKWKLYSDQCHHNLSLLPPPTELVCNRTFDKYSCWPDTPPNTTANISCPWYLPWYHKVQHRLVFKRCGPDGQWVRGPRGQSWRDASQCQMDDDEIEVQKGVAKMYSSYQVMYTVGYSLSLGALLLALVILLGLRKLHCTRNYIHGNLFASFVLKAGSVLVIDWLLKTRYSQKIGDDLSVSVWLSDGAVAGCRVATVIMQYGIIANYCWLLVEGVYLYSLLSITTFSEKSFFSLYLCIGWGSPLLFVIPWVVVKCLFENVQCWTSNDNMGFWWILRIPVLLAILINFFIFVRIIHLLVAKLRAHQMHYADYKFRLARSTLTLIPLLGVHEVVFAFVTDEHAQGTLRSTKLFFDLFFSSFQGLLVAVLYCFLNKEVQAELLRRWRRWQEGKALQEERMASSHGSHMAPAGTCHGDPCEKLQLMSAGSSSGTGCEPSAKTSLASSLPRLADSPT

Chain of human glucagon receptor (Glucagon-R) (P47871 26-477): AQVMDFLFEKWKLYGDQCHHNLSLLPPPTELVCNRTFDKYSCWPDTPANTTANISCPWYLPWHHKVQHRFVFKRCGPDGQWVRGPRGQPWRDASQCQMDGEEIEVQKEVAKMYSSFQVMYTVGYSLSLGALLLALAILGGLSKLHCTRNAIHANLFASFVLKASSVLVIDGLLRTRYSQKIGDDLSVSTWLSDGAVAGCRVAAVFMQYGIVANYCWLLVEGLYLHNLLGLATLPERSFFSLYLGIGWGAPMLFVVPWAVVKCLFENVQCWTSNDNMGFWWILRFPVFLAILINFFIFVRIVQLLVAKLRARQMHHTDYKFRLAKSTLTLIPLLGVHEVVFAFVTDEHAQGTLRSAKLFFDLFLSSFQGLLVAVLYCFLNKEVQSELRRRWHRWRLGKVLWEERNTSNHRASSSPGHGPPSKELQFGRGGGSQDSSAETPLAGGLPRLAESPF

EC50 hGCGR CHO-K1 [nM] (cAMP) [1]	EC50 hGLP-1R CHO-K1 [nM] (cAMP) [2]	Ratio GLP-1/Glucagon (EC50 hGLP-1R / EC50 hGCGR) [2]	EC50 GLP-1R (murine insulinoma cells) [nM] (cAMP) [3]	EC50 GLP-1R Rat hepat. [nM] (inhibition of glycogen synthesis) [4]	Binder
0.25 nM	0.13 nM	0.52 ratio	0.31 nM	1.32 nM	B1
0.92 nM	0.11 nM	0.12 ratio	0.33 nM	6.15 nM	B2
